Measurements taken from patent US20220387578A1.
Positions count from the first letter of the chain named. In names and notes the source's numbering stands.

B1: rFluA-20 heavy chain mutant Y34A (antibody, V domains shown)
VH: QVQLQESGPGLVKPSETLSLTCSVSGVSVTSDIAYWTWIRQPPGKGLEWIGYIFYNGDTNYNPSLKSRVTMSIDTSKNEFSLRLTSVTAADTAVYFCARGTEDLGYCSSGSCPNHWGQGTLVTVSS
VL: DIQMTQSPSSLSASIGDRVTITCRPSQNIRSFLNWFQHKPGKAPKLLIYAASNLQSGVPSRFSGSGSGTEFTLTIRSLQPEDFATYYCQQSYNTPPTFGQGTKVEIK
B2: rFluA-20 heavy chain mutant E97A (antibody, V domains shown)
VH: B1 VH with A34Y, E102A
VL: B1 VL
B3: rFluA-20 heavy chain mutant T96A (antibody, V domains shown)
VH: B1 VH with A34Y, T101A
VL: B1 VL

target: H1 HA A/Solomon Islands/03/2006 (H1N1), recombinant soluble trimer (influenza A virus)

Binder | EC50 [µg/mL]
B1 | 0.04
B2 | 0.07
B3 | 0.03

target: H3 HA A/Texas/50/2012, recombinant soluble trimer (influenza A virus)

Binder | EC50 [µg/mL]
B1 | 0.16
B2 | 0.18
B3 | 0.07

target: H1 HA A/Texas/36/1991 (H1N1), recombinant soluble trimer (influenza A virus)

Binder | EC50 [µg/mL]
B1 | 0.05
B2 | 0.05
B3 | 0.04
